Results published in the supplement of paper PMC5998384.

Key:
[1] = system: HeLa Kyoto; assay: solubility in G1/S (NP-40 vs SDS abundance) (log2 ratio); higher = more soluble; settings: cell cycle stage: G1/S
[2] = system: HeLa Kyoto; assay: solubility change mitosis vs G1/S (difference of NP-40 vs SDS log2 ratios) (log2 ratio difference); higher = more soluble in mitosis
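For solubility change mitosis vs G1/S (difference of NP-40 vs SDS log2 ratios) in this document: synchronized HeLa Kyoto cells (double thymidine block for G1/S, nocodazole release for mitosis), protein amounts in NP-40 versus SDS lysates quantified by mass spectrometry, three biological replicates.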
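For solubility in G1/S (NP-40 vs SDS abundance) in this document: HeLa Kyoto cells arrested at G1/S by double thymidine block, proteins quantified by TMT10plex mass spectrometry in mild NP-40 versus SDS extracts, three biological replicates.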

Substance	solubility in G1/S (log2) [1]	solubility change mitosis (log2) [2]
MGNRGMEDLIPLVNRLQDAFSAIGQNADLDLPQIAVVGGQSAGKSSVLENFVGRDFLPRGSGIVTRRPLVLQLVNATTEYAEFLHCKGKKFTDFEEVRLEIEAETDRVTGTNKGISPVPINLRVYSPHVLNLTLVDLPGMTKVPVGDQPPDIEFQIRDMLMQFVTKENCLILAVSPANSDLANSDALKVAKEVDPQGQRTIGVITKLDLMDEGTDARDVLENKLLPLRRGYIGVVNRSQKDIDGKKDITAALAAERKFFLSHPSYRHLADRMGTPYLQKVLNQQLTNHIRDTLPGLRNKLQSQLLSIEKEVEEYKNFRPDDPARKTKALLQMVQQFAVDFEKRIEGSGDQIDTYELSGGARINRIFHERFPFELVKMEFDEKELRREISYAIKNIHGIRTGLFTPDMAFETIVKKQVKKIREPCLKCVDMVISELISTVRQCTKKLQQYPRLREEMERIVTTHIREREGRTKEQVMLLIDIELAYMNTNHEDFIGFANAQQRSNQMNKKKTSGNQDEILVIRKGWLTINNIGIMKGGSKEYWFVLTAENLSWYKDDEEKEKKYMLSVDNLKLRDVEKGFMSSKHIFALFNTEQRNVYKDYRQLELACETQEEVDSWKASFLRAGVYPERVGDKEKASETEENGSDSFMHSMDPQLERQVETIRNLVDSYMAIVNKTVRDLMPKTIMHLMINNTKEFIFSELLANLYSCGDQNTLMEESAEQAQRRDEMLRMYHALKEALSIIGDINTTTVSTPMPPPVDDSWLQVQSVPAGRRSPTSSPTPQRRAPAVPPARPGSRGPAPGPPPAGSALGGAPPVPSRPGASPDPFGPPPQVPSRPNRAPPGVPSRSGQASPSRPESPRPPFDL [DNM1]	0.233	-0.0969
MSKRLSPQLQHNITEDAYCETHLEPTRLFCDVDQITLCSKCFQSQEHKHHMVCGIQEAAENYRKLFQEILNTSREKLEAAKSILTDEQERMAMIQEEEQNFKKMIESEYSMRLRLLNEECEQNLQRQQECISDLNLRETLLNQAIKLATELEEMFQEMLQRLGRVGRENMEKLKESEARASEQVRSLLKLIVELEKKCGEGTLALLKNAKYSLERSKSLLLEHLEPAHITDLSLCHIRGLSSMFRVLQRHLTLDPETAHPCLALSEDLRTMRLRHGQQDGAGNPERLDFSAMVLAAESFTSGRHYWEVDVEKATRWQVGIYHGSADAKGSTARASGEKVLLTGSVMGTEWTLWVFPPLKRLFLEKKLDTVGVFLDCEHGQISFYNVTEMSLIYNFSHCAFQGALRPVFSLCIPNGDTSPDSLTILQHGPSCDATVSP [TRIML2]	0.0183	-0.17
MPDNRQPRNRQPRIRSGNEPRSAPAMEPDGRGAWAHSRAALDRLEKLLRCSRCTNILREPVCLGGCEHIFCSNCVSDCIGTGCPVCYTPAWIQDLKINRQLDSMIQLCSKLRNLLHDNELSDLKEDKPRKSLFNDAGNKKNSIKMWFSPRSKKVRYVVSKASVQTQPAIKKDASAQQDSYEFVSPSPPADVSERAKKASARSGKKQKKKTLAEINQKWNLEAEKEDGEFDSKEESKQKLVSFCSQPSVISSPQINGEIDLLASGSLTESECFGSLTEVSLPLAEQIESPDTKSRNEVVTPEKVCKNYLTSKKSLPLENNGKRGHHNRLSSPISKRCRTSILSTSGDFVKQTVPSENIPLPECSSPPSCKRKVGGTSGRKNSNMSDEFISLSPGTPPSTLSSSSYRRVMSSPSAMKLLPNMAVKRNHRGETLLHIASIKGDIPSVEYLLQNGSDPNVKDHAGWTPLHEACNHGHLKVVELLLQHKALVNTTGYQNDSPLHDAAKNGHVDIVKLLLSYGASRNAVNIFGLRPVDYTDDESMKSLLLLPEKNESSSASHCSVMNTGQRRDGPLVLIGSGLSSEQQKMLSELAVILKAKKYTEFDSTVTHVVVPGDAVQSTLKCMLGILNGCWILKFEWVKACLRRKVCEQEEKYEIPEGPRRSRLNREQLLPKLFDGCYFYLWGTFKHHPKDNLIKLVTAGGGQILSRKPKPDSDVTQTINTVAYHARPDSDQRFCTQYIIYEDLCNYHPERVRQGKVWKAPSSWFIDCVMSFELLPLDS [BARD1]	-0.332	0.187
VPS13B	-0.247	-0.0582
MLGTLRAMEGEDVEDDQLLQKLRASRRRFQRRMQRLIEKYNQPFEDTPVVQMATLTYETPQGLRIWGGRLIKERNEGEIQDSSMKPADRTDGSVQAAAWGPELPSHRTVLGADSKSGEVDATSDQEESVAWALAPAVPQSPLKNELRRKYLTQVDILLQGAEYFECAGNRAGRDVRVTPLPSLASPAVPAPGYCSRISRKSPGDPAKPASSPREWDPLHPSSTDMALVPRNDSLSLQETSSSSFLSSQPFEDDDICNVTISDLYAGMLHSMSRLLSTKPSSIISTKTFIMQNWNSRRRHRYKSRMNKTYCKGARRSQRSSKENFIPCSEPVKGTGALRDCKNVLDVSCRKTGLKLEKAFLEVNRPQIHKLDPSWKERKVTPSKYSSLIYFDSSATYNLDEENRFRTLKWLISPVKIVSRPTIRQGHGENRQREIEIRFDQLHREYCLSPRNQPRRMCLPDSWAMNMYRGGPASPGGLQGLETRRLSLPSSKAKAKSLSEAFENLGKRSLEAGRCLPKSDSSSSLPKTNPTHSATRPQQTSDLHVQGNSSGIFRKSVSPSKTLSVPDKEVPGHGRNRYDEIKEEFDKLHQKYCLKSPGQMTVPLCIGVSTDKASMEVRYQTEGFLGKLNPDPHFQGFQKLPSSPLGCRKSLLGSTAIEAPSSTCVARAITRDGTRDHQFPAKRPRLSEPQGSGRQGNSLGASDGVDNTVRPGDQGSSSQPNSEERGENTSYRMEEKSDFMLEKLETKSV [HJURP]	-0.154	0.197
MWCIVLFSLLAWVYAEPTMYGEILSPNYPQAYPSEVEKSWDIEVPEGYGIHLYFTHLDIELSENCAYDSVQIISGDTEEGRLCGQRSSNNPHSPIVEEFQVPYNKLQVIFKSDFSNEERFTGFAAYYVATDINECTDFVDVPCSHFCNNFIGGYFCSCPPEYFLHDDMKNCGVNCSGDVFTALIGEIASPNYPKPYPENSRCEYQIRLEKGFQVVVTLRREDFDVEAADSAGNCLDSLVFVAGDRQFGPYCGHGFPGPLNIETKSNALDIIFQTDLTGQKKGWKLRYHGDPMPCPKEDTPNSVWEPAKAKYVFRDVVQITCLDGFEVVEGRVGATSFYSTCQSNGKWSNSKLKCQPVDCGIPESIENGKVEDPESTLFGSVIRYTCEEPYYYMENGGGGEYHCAGNGSWVNEVLGPELPKCVPVCGVPREPFEEKQRIIGGSDADIKNFPWQVFFDNPWAGGALINEYWVLTAAHVVEGNREPTMYVGSTSVQTSRLAKSKMLTPEHVFIHPGWKLLEVPEGRTNFDNDIALVRLKDPVKMGPTVSPICLPGTSSDYNLMDGDLGLISGWGRTEKRDRAVRLKAARLPVAPLRKCKEVKVEKPTADAEAYVFTPNMICAGGEKGMDSCKGDSGGAFAVQDPNDKTKFYAAGLVSWGPQCGTYGLYTRVKNYVDWIMKTMQENSTPRED [C1S]	0.0236	-0.029
MWEKMETKTIVYDLDTSGGLMEQIQALLAPPKTDEAEKRSRKPEKEPRRSGRATNHDSCDSCKEGGDLLCCDHCPAAFHLQCCNPPLSEEMLPPGEWMCHRCTVRRKKREQKKELGHVNGLVDKSGKRTTSPSSDTDLLDRSASKTELKAIAHARILERRASRPGTPTSSASTETPTSEQNDVDEDIIDVDEEPVAAEPDYVQPQLRRPFELLIAAAMERNPTQFQLPNELTCTTALPGSSKRRRKEETTGKNVKKTQHELDHNGLVPLPVKVCFTCNRSCRVAPLIQCDYCPLLFHMDCLEPPLTAMPLGRWMCPNHIEHVVLNQKNMTLSNRCQVFDRFQDTVSQHVVKVDFLNRIHKKHPPNRRVLQSVKRRSLKVPDAIKSQYQFPPPLIAPAAIRDGELICNGIPEESQMHLLNSEHLATQAEQQEWLCSVVALQCSILKHLSAKQMPSHWDSEQTEKADIKPVIVTDSSVTTSLQTADKTPTPSHYPLSCPSGISTQNSLSCSPPHQSPALEDIGCSSCAEKSKKTPCGTANGPVNTEVKANGPHLYSSPTDSTDPRRLPGANTPLPGLSHRQGWPRPLTPPAAGGLQNHTVGIIVKTENATGPSSCPQRSLVPVPSLPPSIPSSCASIENTSTLQRKTVQSQIGPPLTDSRPLGSPPNATRVLTPPQAAGDGILATTANQRFSSPAPSSDGKVSPGTLSIGSALTVPSFPANSTAMVDLTNSLRAFMDVNGEIEINMLDEKLIKFLALQRIHQLFPSRVQPSPGSVGTHQLASGGHHIEVQRKEVQARAVFYPLLGLGGAVNMCYRTLYIGTGADMDVCLTNYGHCNYVSGKHACIFYDENTKHYELLNYSEHGTTVDNVLYSCDFSEKTPPTPPSSIVAKVQSVIRRRRHQKQDEEPSEEAAMMSSQAQGPQRRPCNCKASSSSLIGGSGAGWEGTALLHHGSYIKLGCLQFVFSITEFATKQPKGDASLLQDGVLAEKLSLKPHQGPVLRSNSVP [PHF12]	-0.326	0.237
MAGLTLFVGRLPPSARSEQLEELFSQVGPVKQCFVVTEKGSKACRGFGYVTFSMLEDVQRALKEITTFEGCKINVTVAKKKLRNKTKEKGKNENSECPKKEPKAKKAKVADKKARLIIRNLSFKCSEDDLKTVFAQFGAVLEVNIPRKPDGKMRGFGFVQFKNLLEAGKALKGMNMKEIKGRTVAVDWAVAKDKYKDTQSVSAIGEEKSHESKHQESVKKKGREEEDMEEEENDDDDDDDDEEDGVFDDEDEEEENIESKVTKPVQIQKRAVKRPAPAKSSDHSEEDSDLEESDSIDDGEELAQSDTSTEEQEDKAVQVSNKKKRKLPSDVNEGKTVFIRNLSFDSEEEELGELLQQFGELKYVRIVLHPDTEHSKGCAFAQFMTQEAAQKCLLAASPENEAGGLKLDGRQLKVDLAVTRDEAAKLQTTKVKKPTGTRNLYLAREGLIRAGTKAAEGVSAADMAKRERFELLKHQKLKDQNIFVSRTRLCLHNLPKAVDDKQLRKLLLSATSGEKGVRIKECRVMRDLKGVHGNMKGQSLGYAFAEFQEHEHALKALRLINNNPEIFGPLKRPIVEFSLEDRRKLKMKELRIQRSLQKMRSKPATGEPQKGQPEPAKDQQQKAAQHHTEEQSKVPPEQKRKAGSTSWTGFQTKAEVEQVELPDGKKRRKVLALPSHRGPKIRLRDKGKVKPVHPKKPKPQINQWKQEKQQLSSEQVSRKKAKGNKTETRFNQLVEQYKQKLLGPSKGAPLAKRSKWFDS [RBM28]	-2.35	1.56
MAP3K1	-0.0921	-0.131
MAPDPWFSTYDSTCQIAQEIAEKIQQRNQYERKGEKAPKLTVTIRALLQNLKEKIALLKDLLLRAVSTHQITQLEGDRRQNLLDDLVTRERLLLASFKNEGAEPDLIRSSLMSEEAKRGAPNPWLFEEPEETRGLGFDEIRQQQQKIIQEQDAGLDALSSIISRQKQMGQEIGNELDEQNEIIDDLANLVENTDEKLRNETRRVNMVDRKSASCGMIMVILLLLVAIVVVAVWPTN [STX8]	0.624	-0.0243
MTLKASEGESGGSMHTALSDLYLEHLLQKRSRPEAVSHPLNTVTEDMYTNGSPAPGSPAQVKGQEVRKVRLIQFEKVTEEPMGITLKLNEKQSCTVARILHGGMIHRQGSLHVGDEILEINGTNVTNHSVDQLQKAMKETKGMISLKVIPNQQSRLPALQMFMRAQFDYDPKKDNLIPCKEAGLKFATGDIIQIINKDDSNWWQGRVEGSSKESAGLIPSPELQEWRVASMAQSAPSEAPSCSPFGKKKKYKDKYLAKHSSIFDQLDVVSYEEVVRLPAFKRKTLVLIGASGVGRSHIKNALLSQNPEKFVYPVPYTTRPPRKSEEDGKEYHFISTEEMTRNISANEFLEFGSYQGNMFGTKFETVHQIHKQNKIAILDIEPQTLKIVRTAELSPFIVFIAPTDQGTQTEALQQLQKDSEAIRSQYAHYFDLSLVNNGVDETLKKLQEAFDQACSSPQWVPVSWVY [MPP1]	0.098	-0.0545
